How the values were obtained:
SARS-CoV-2 Beta株S-ECD蛋白 = SARS-CoV-2 Beta株S-ECD蛋白 (SARS-CoV-2 Beta株 (B.1.351), UniProt P0DTC2 14-1213)
SARS-CoV-2 Delta株S-ECD蛋白 = SARS-CoV-2 Delta株S-ECD蛋白 (SARS-CoV-2 Delta株 (B.1.617.2), UniProt P0DTC2 14-1213)
SARS-CoV-2 Gamma株S-ECD蛋白 = SARS-CoV-2 Gamma株S-ECD蛋白 (SARS-CoV-2 Gamma株 (P.1), UniProt P0DTC2 14-1213)
SARS-CoV-2 Alpha株S-ECD蛋白 = SARS-CoV-2 Alpha株S-ECD蛋白 (SARS-CoV-2 Alpha株 (B.1.1.7), UniProt P0DTC2 14-1213)

B1: 抗SARS-CoV-2全人源单克隆抗体ZWC6 (antibody, human IgG1, kappa, V domains shown)
VH: EVQLVESGGGVVQPGTSLRLSCAASGFSFSHYVMYWVRQAPGKGLDWVAIISFDGSSQYYADSVKGRFTISRDNSKDTLYLQMHSLRPEDTAVYYCAIHGGTYYYDKNILAWGQGTLVTVSS
VL: AIRMTQSPPTLSLSPGERATLSCRASQSVTNYLVWYQQKPGQAPRLLIYDTFNRATGIPARFSGSGSGTDFTLTISSLEPEDFAVYYCQQRSNWPPTFGQGTKVDIKR
Binder B1 has a Kd (SARS-CoV-2 Beta株S-ECD蛋白) of 0.658 nM, a koff (SARS-CoV-2 Beta株S-ECD蛋白) of 0.000121 s⁻¹ and a kon (SARS-CoV-2 Beta株S-ECD蛋白) of 184000 M⁻¹ s⁻¹. The Kd (SARS-CoV-2 Delta株S-ECD蛋白) was 4.21 nM, the koff (SARS-CoV-2 Delta株S-ECD蛋白) was 0.000305 s⁻¹ and the kon (SARS-CoV-2 Delta株S-ECD蛋白) was 72400 M⁻¹ s⁻¹. For the same binder, the Kd (SARS-CoV-2 Gamma株S-ECD蛋白) was 1.2 nM, the koff (SARS-CoV-2 Gamma株S-ECD蛋白) was 0.000182 s⁻¹ and the kon (SARS-CoV-2 Gamma株S-ECD蛋白) was 151000 M⁻¹ s⁻¹. For the same binder, the Kd (SARS-CoV-2 Alpha株S-ECD蛋白) was 0.938 nM, the koff (SARS-CoV-2 Alpha株S-ECD蛋白) was 0.000164 s⁻¹ and the kon (SARS-CoV-2 Alpha株S-ECD蛋白) was 175000 M⁻¹ s⁻¹.
